In patent US20190309034A1 (Boehringer Ingelheim, published 2019):

Tests used:
[1] = molecular target: T1, Recombinant soluble trimeric human BAFF (furin-cleaved human BAFF 134-285) (human, UniProt Q9Y275 134-285); experiment: cell-based or functional assay
[2] = molecular target: T2, Recombinant soluble 60-mer human BAFF (His-HuBAFF 134-285) (human, UniProt Q9Y275 134-285); experiment: cell-based or functional assay
[3] = molecular target: T1, Recombinant soluble trimeric human BAFF …; experiment: SPR, antibody captured on Protein A/G, soluble trimeric BAFF flowed over, 1:1 Langmuir global fit, apparent affinity (at detection limit)
Protocol: Apparent binding affinities were evaluated using surface plasmon resonance where the antibodies were captured at different surface densities on a Protein A/G surface. Soluble trimeric BAFF at different concentrations were flowed over the captured antibody. Clinical reference antibodies (Reference 1 comprising SEQ ID NOS: 98 and 116) and Reference 2 comprising SEQ ID NOS: 99 and 117) were used as comparators.

[4] = molecular target: T1, Recombinant soluble trimeric human BAFF …; experiment: cell-based or functional assay; remark: listed apart in the source
[5] = molecular target: T3, Human membrane-bound BAFF (mbBAFF) (human, UniProt Q9Y275 1-285); experiment: cell-based or functional assay
[6] = molecular target: T1, Recombinant soluble trimeric human BAFF …; experiment: cell-based or functional assay; remark: listed apart in the source
[7] = molecular target: T2, Recombinant soluble 60-mer human BAFF …; experiment: cell-based or functional assay; remark: listed apart in the source
[8] = molecular target: T3, Human membrane-bound BAFF (mbBAFF); experiment: cell-based or functional assay; remark: listed apart in the source

| Binder | Soluble trimeric huBAFF (52 pM) Neutralization IC90 [1] | Soluble 60-mer huBAFF (4.2 pM) Neutralization IC90 [2] | Kd [3] | IC50 (neutralisation of soluble trimeric huBAFF activation of human BAFFR, luciferase reporter CHO cells) [4] | IC90 (neutralisation of soluble trimeric huBAFF activation of human BAFFR, luciferase reporter CHO cells) [4] | IC50 (neutralisation of mbBAFF activation of human BAFFR, fixed mbBAFF-CHO mixed with luciferase reporter BAFFR-CHO cells) [5] | Soluble trimeric huBAFF (50 pM) Neutralization IC50 [6] | Soluble trimeric huBAFF (50 pM) Neutralization IC90 [6] | Soluble 60-mer huBAFF (4 pM) Neutralization IC50 [7] | Soluble 60-mer huBAFF (4 pM) Neutralization IC90 [7] | Potent mbBAFF Neutralization IC50 [8] | Potent mbBAFF Neutralization IC90 [8] |
| --- | --- | --- | --- | --- | --- | --- | --- | --- | --- | --- | --- | --- |
| 210D9B8 (antibody, V domains shown, Mouse lead antibody (hybridoma)) VH: QVQLQQPGTEFVKPGASVKLSCEASGYTFITYWMHWVKQRPGRGLEWIGGIDPNSGVIKYNEKFKSKATLTVDKPSSTAYMQLSSLTSEDSAVYYCARGEDLLIRTDAMDYWGQGTSVTVSS VL: DIVMTQSQKFVSTTLGDRVSITCKASQSVGIAVAWYQQKPGHSPNLLIFSTSNRYTGVPDRFTGSGSGTDFTLTISDVQSEDLADYFCQQYSRYPRTFGGGTKLEIK | 156 pM | 14 pM | < 0.01 nM |  |  |  |  |  |  |  |  |  |
| 206G9A10 (antibody, V domains shown, Mouse lead antibody (hybridoma)) VH: QVQLQQPGAELVKPGASVKLSCKASGYTFSIFCIHWVQQRPGRGLEWIGRIDPSSGGTKYNEKFESKATLTVDKSSSTAYMQLSSLTSEDSAVYYCARGEDLLVRTDAMDYWGQGTSVTVSS VL: DIVMTQSQKFMSTTVGDRVSITCKASQNAGAAVAWFQQKPGQSPKLLIYSASNRYTGVPDRFTGSGSGTDFTLTISNVQSEDLADYICQQYRSYPRTFGGGTKLEIK | 35.1 pM | 0.2 pM | < 0.01 nM |  |  |  |  |  |  |  |  |  |
| 227D3B11 (antibody, V domains shown, Mouse lead antibody (hybridoma)) VH: QVQLQQPGAELVKPGASVKLSCKASGYSFSTFFIHWIQQRPGRGLEWIGRIDPNSGGTKYNEKFESKATLTVDKPSSTAYMHLSSLTSEDSAVYYCARGEDLLIRTDAMDYWGQGTSVTVSS VL: DIVMTQSQKIMSTTVGDRVSITCKASQNAGIDVAWFQQKPRQSPKLLIFSTSNRYTGVPDRFAGSGSGTDFTLTIYNVQSEDLADYFCLQYRSYPRTFGGGTKLEIK | 128 pM | 1.6 pM | < 0.01 nM |  |  |  |  |  |  |  |  |  |
| Ch-235F5B9 (antibody, V domains shown) VH: QVQLQQPGAELVKPGASVKLSCKASGYSFSTFFIHWIQQRPGRGLEWIGRIDPNSGATKYNEKFESKATLTVDKPSSTAYMHLSSLTSEDSAVYYCARGEDLLIRTDALDYWGQGTSVTVSS VL: DIVMTQSQKIMSTTVGDRVSITCKASQNAGIDVAWFQQKPRQSPKLLIFSKSNRYTGVPDRFAGSGSGTDFTLTIYNVQSEDLADYFCLQYRSYPRTFGGGTKLEIK |  |  |  | 0.13 nM | 0.27 nM | 0.19 nM |  |  |  |  |  |  |
| 214G4B7 (antibody, V domains shown, Mouse lead antibody (hybridoma)) VH: QVQLQQPGAEFVKPGASVKLSCKASGYSFSTFCIHWVQQRPGRGLEWIGRIDPNSGGTKYNEKFESKATLTIDKPSSTAYVHLSSLTSEDSAVYYCARGEDLLIRTDAMDYWGQGTSVTVSS VL: DIVMTQSQKFMSTTVGDRVSITCKASQNAGTAVAWFQQKPGQSPKLLIFSTSNRYTGVPDRFTGSGSGTDFTLTISNMQSEDLADYFCLQYRSYPRTFGGGTKLEIK | 296 pM | 3 pM | < 0.01 nM |  |  |  |  |  |  |  |  |  |
| 250E5A11 (antibody, V domains shown, Mouse lead antibody (hybridoma)) VH: QVQLQQPGTELVKPGASVKLSCKASGYTFSIFCIHWVQQRPGRGLEWIGRIDPSSGGTKYNERFENKATLTVDKSSSTAYMQLSSLTFEDSAVYYCARGEDLLVRTDAMDYWGQGTSVTVSS VL: DIVMTQSQKFMSTTVGDRVSITCKASQNAGAAVAWFQQKPGQSPKLLIYSASNRYTGVPDRFTGSGSGTDFTLTITNVQSEDLADYICQQYRSFPRTFGGGTKLEIK | 97.5 pM | 0.3 pM | < 0.01 nM |  |  |  |  |  |  |  |  |  |
| 217H12A7 (antibody, V domains shown, Mouse lead antibody (hybridoma)) VH: QVQLQQPGAELVKPGASVKLSCKASGYTFSTFLIHWVQQRPGRGLEWIGRIDPNSGGTKYNEKFERKVTLTVDKPSSTAYMQLSSLTSEDSAVYYCARGEDLLLRTDAMDYWGQGTSVTVSS VL: DIVMTQSQKFMSTTVGDRVSITCKASQNAGTAVAWFQQKPGQSPKLLIYSAFNRYTGVPDRFTGSGSGTDFTLTISNMQSEDLADYICQQYRSYPRTFGGGTKLEIK | 129 pM | 13.4 pM | < 0.01 nM |  |  |  |  |  |  |  |  |  |
| 235F5B9 (antibody, V domains shown, Mouse lead antibody (hybridoma)) VH: QVQLQQPGAELVKPGASVKLSCKASGYSFSTFFIHWIQQRPGRGLEWIGRIDPNSGATKYNEKFESKATLTVDKPSSTAYMHLSSLTSEDSAVYYCARGEDLLIRTDALDYWGQGTSVTVSS VL: DIVMTQSQKIMSTTVGDRVSITCKASQNAGIDVAWFQQKPRQSPKLLIFSKSNRYTGVPDRFAGSGSGTDFTLTIYNVQSEDLADYFCLQYRSYPRTFGGGTKLEIK | 107 pM | 2.2 pM | < 0.01 nM | 0.11 nM | 0.21 nM | 0.18 nM |  |  |  |  |  |  |
| 227D5A7 (antibody, V domains shown, Mouse lead antibody (hybridoma)) VH: QVQLQQPGAELVKPGASVKLSCKASGYTFSIFCVHWVQQRPGRGLEWIGRIDPSSGGTKYNEKFESKATLTVDKSSSTAYMQLSSLTPEDSAVYYCARGEDLLVRTDALDYWGQGSSVTVSS VL: DIVMTQSQKFMSTTVGDRVSITCKASQNAGAAVAWFQQKPGQSPKLLIYSASNRYTGVPDRFTGSGSGTDFTLTISNVQSEDLADYICQQYRSFPRTFGGGTKLEIK | 56.8 pM | 0.8 pM | < 0.01 nM |  |  |  |  |  |  |  |  |  |
| 13J018-1A4 (antibody, V domains shown, Mouse lead antibody (hybridoma)) VH: QVQLQQSGPEVVRPGASVKISCKAPDHIFSIHWMQWVRQRPGPGLEWIGEIFPGSGTTDYNEKFKGKATVTVDRGSRSAYMQFNSLTSEDSAVYFCASGAFDYWGQGTTLTVSS VL: DIQMTQSPSSLSASLGERVSLTCRASQDIGNRLNWLQQEPDGTIKRLIYATSSLDSGVPKRFSGSRSGSDYSLTISSLESEDFVDYYCLQYASSPFTFGTGTKLEIK | 305 pM | 23 pM | < 0.01 nM | 0.11 nM | 0.35 nM | 0.29 nM |  |  |  |  |  |  |
| Ch-13J0-18-1A4 (antibody, V domains shown) VH: QVQLQQSGPEVVRPGASVKISCKAPDHIFSIHWMQWVRQRPGPGLEWIGEIFPGSGTTDYNEKFKGKATVTVDRGSRSAYMQFNSLTSEDSAVYFCASGAFDYWGQGTTLTVSS VL: DIQMTQSPSSLSASLGERVSLTCRASQDIGNRLNWLQQEPDGTIKRLIYATSSLDSGVPKRFSGSRSGSDYSLTISSLESEDFVDYYCLQYASSPFTFGTGTKLEIK |  |  |  | 0.16 nM | 0.45 nM | 0.41 nM |  |  |  |  |  |  |
| 1094C4E6 (antibody, V domains shown) VH: EVQLQQSGAELVRPGASVKLSCTASGFNIKDDYMHWVKQTPEQGLEWIGRIDPAYGNGKYVPKFQDKATITADTSSNTAYLQLSSLTSEDTAVYYCARRYYAVSSVDYALDYWGQGTSVTVSS VL: DIVMTQSHKFMSTSVGDRVTITCKASQDVATAVAWYQQKPGQSPKLLIYWASTRHTGVPDRFTGSGSGTDFTLTISNVQSEDLANYFCQQYSNYPYTFGGGTTLEIK |  |  |  |  |  |  | 384 pM | 1100 pM | 4050 pM | 20900 pM | 2.56 nM | 175 nM |
| Reference 1 (antibody, human IgG4 S228P, kappa, V domains shown, Comparator anti-BAFF antibody) VH: QVQLQQWGAGLLKPSETLSLTCAVYGGSFSGYYWSWIRQPPGKGLEWIGEINHSGSTNYNPSLKSRVTISVDTSKNQFSLKLSSVTAADTAVYYCARGYYDILTGYYYYFDYWGQGTLVTVSS VL: EIVLTQSPATLSLSPGERATLSCRASQSVSRYLAWYQQKPGQAPRLLIYDASNRATGIPARFSGSGSGTDSTLTISSLEPEDFAVYYCQQRSNWPRTFGQGTKVEIKR | 290 pM | 21 pM | < 0.01 nM | 0.12 nM |  | 0.21 nM |  | 290 pM | 40 pM | 102 pM | 0.177 nM | 1.05 nM |
